One experiment deals with CXCR4. In words: Discrimination power from published data: CXCR4. The settings on record: ID 21; output Voltage; n 5; ns; ref Guyon 2013. An excerpt:
The broad method was to obtain a measure of ligand potency from each study. […] If not explicitly provided, we estimated ligand potency as PX , which was defined by the concentration of ligand that produced X response. To do this, we drew a horizontal line at X on a provided dose-response graph and estimated the ligand concentration where the data intercepted the horizontal line. The disadvantage with this method is that ligand potency was estimated based on the single representative graph provided in the study.
Each study often contained or cited a study that contained estimates of KD or koff for the specific TCR/pMHC interactions used in the study. We only included studies where monomeric SPR binding data was available to avoid multimeric binding parameters (e.g. when using tetramers). However, when analysing discrimination by other non-TCR receptors, we included binding data from various methods (e.g. SPR, radio labelled ligands) provided they were monomeric measurements. The use of SPR is important for weak interactions, such as TCR/pMHC, but various methods are available for higher-affinity interactions.
The plot of potency over KD or k off was fit using linear regression on log-transformed axes. We reported the slope of the fit (i.e. the discrimination power, α), the goodness-of-fit measure ( R^2 ), and the p-value for the null hypothesis that the slope is zero (i.e. α=0 ). […]

Experiment [1] deals with CD8+ T cell blasts expressing 1G4 TCR. In words: TCR downregulation (tetramer gMFI), plate-bound pMHC + ICAM1. Format: cell-based, human. An excerpt:
Figure 4. The T cell discriminatory power is enhanced by ligation of the receptors CD2 or LFA-1. (A) Protocol for stimulation of CD8^+ T cell blasts with plate-bound recombinant ligands. (B, C) Example dose-response curve for 1G4 T cell blasts stimulated with (B) peptides presented on major histocompatibility complex (pMHC) alone or (C) in combination with CD58 or ICAM1. (D, E) Potency derived from dose-response curves over KD showing the power function fit (D) with pMHC alone or (E) in combination with CD58 or ICAM1. (F) Comparison of the fitted discrimination power (α) and (G) fitted sensitivity ( C ). Shown are geometric means with each dot representing an independent experiment (n = 4–5). (F) In grey the result of a statistical test vs. 1 is shown (p=0.09 for pMHC, p=0.002 for CD58 and ICAM1, p=0.0002 for U87/1G4). Figure 4—source data 1. CD69 dose-response data for Figure 4. […]
For stimulation, T cells were counted, washed once to remove excess IL2, and 75,000 cells in 180–200 μl complete RMPI were dispensed per well. […] Cells were stained for flow cytometry and analysed immediately, or fixed and stored for up to 1 day. […]
Tetramers were produced in-house using refolded monomeric, biotinylated pMHC, and streptavidin-PE (Biolegend) at a 1:4 molar ratio. […] Samples were analysed using a BD X-20 flow cytometer, and data analysis was performed using FlowJo v10 (BD Biosciences).

B1: CXCR4: receptor tested with Baclofen and other GABA ligands (protein, UniProt P61073 1-352, looked up)
C-X-C chemokine receptor type …: MEGISIYTSDNYTEEMGSGDYDSMKEPCFREENANFNKIFLPTIYSIIFLTGIVGNGLVILVMGYQKKLRSMTDKYRLHLSVADLLFVITLPFWAVDAVANWYFGNFLCKAVHVIYTVNLYSSVLILAFISLDRYLAIVHATNSQRPRKLLAEKVVYVGVWIPALLLTIPDFIFANVSEADDRYICDRFYPNDLWVVVFQFQHIMVGLILPGIVILSCYCIIISKLSHSKGHQKRKALKTTVILILAFFACWLPYYIGISIDSFILLEIIKQGCEFENTVHKWISITEALAFFHCCLNPILYAFLGAKFKTSAQHALTSVSRGSSLKILSKGKRGGHSSVSTESESSSFHSS
With B1, the “Power (discrimination power)” value in the experiment on CXCR4 was determined as 0.5686.

B2: ICAM1: human ICAM1 ECD, a ligand of LFA-1 (protein, UniProt P05362 28-480, looked up)
extracellular domain: QTSVSPSKVILPRGGSVLVTCSTSCDQPKLLGIETPLPKKELLLPGNNRKVYELSNVQEDSQPMCYSNCPDGQSTAKTFLTVYWTPERVELAPLPSWQPVGKNLTLRCQVEGGAPRANLTVVLLRGEKELKREPAVGEPAEVTTTVLVRRDHHGANFSCRTELDLRPQGLELFENTSAPYQLQTFVLPATPPQLVSPRVLEVDTQGTVVCSLDGLFPVSEAQVHLALGDQRLNPTVTYGNDSFSAKASVSVTAEDEGTQRLTCAVILGNQSQETLQTVTIYSFPAPNVILTKPEVSEGTEVTVKCEAHPRAKVTLNGVPAQPLGPRAQLLLKATPEDNGRSFSCSATLEVAGQLIHKNQTRELRVLYGPRLDERDCPGNWTWPENSQQTPMCQAWGNPLPELKCLKDGTFPLPIGESVTVTRDLEGTYLCRARSTQGEVTRKVTVNVLSPRYE
modifications: extracellular domain
Turning to B2, the TCR downregulation entry in experiment [1] is listed as “increased TCR downregulation”.

The values are drawn from publication PMC8219380, “The discriminatory power of the T cell receptor” (eLife, 2021).
